The values that follow come from PMC8065591, “SPECT Imaging of SST2-Expressing Tumors with ^99mTc-Based Somatostatin Receptor Antagonists: The Role of Tetraamine, HYNIC, and Spacers” (Pharmaceuticals, 2021).

Data set [1] is classed as physicochemical. Here is the method:
In general, all JR11-based radiotracers were more hydrophilic than the corresponding SS01-based radiotracers. […] [^99[…] was excluded from further studies. […] In a pre-lubricated Eppendorf tube, a pre-saturated mixture of 500 μL 1-octanol and 500 μL of phosphate-buffered saline (PBS) at pH 7.4 was added. An amount of 10 μL of 1 μM radiotracer solution was added to this mixture, followed by vortexing of the tube at room temperature for 15 min to reach equilibrium. Centrifugation for 15 min at 3000 rpm was performed for separation of the phases. Aliquots of 100 μL were removed from the octanol and from the PBS phase, and the activity measured in a γ-counter. The partition coefficient was calculated as the average log ratio value of the radioactivity in the organic fraction and PBS fraction.

Another data set relates to HEK-SST2 tumors. On the set-up: species or system mice. To be noted: mouse, in vivo. The protocol: The Veterinary Office (Department of Health) of the Cantonal Basel-Stadt approved the animal experiments (approval no. 30515) in accordance with the Swiss regulations for animal treatment. Female athymic nude-Foxn1nu/Foxn1+ mice (Envigo, The Netherlands), 4-6 weeks old, were injected subcutaneously with 10^7 HEK-SST2 cells in the right shoulder, freshly suspended in 100 μL sterile phosphate-buffered saline. The tumors were allowed to grow for 2-3 weeks. Mice bearing HEK-SST2 tumors were euthanized 1 or 4 h after intravenous injection of 4-6 MBq (200 pmol) of the ^99mTc-labeled conjugates and imaged supine, head first, using a SPECT/CT system dedicated to imaging small animals (NanoSPECT/CT^TM Bioscan Inc.). Topograms and helical CT scans of the whole mouse were first acquired using the following parameters: X-ray tube current: 177 μA, X-ray tube voltage 45 kVp, 90 s and 180 frames per rotation, pitch 1. The helical SPECT scan was then acquired from head to toe using multi-purpose pinhole collimators (APT1). The energy window width was 20%, centered symmetrically over the energy peak of ^99mTc at 140 keV. Twenty-four projections (200 s per projection) were used, allowing acquisition of at least 50 kilocounts/projection. […]

A further data set concerns SST2. The settings on record: cited from earlier work.

Where a SMILES comes first, the peptide text is derived from it. Bridges are numbered along the chain shown (N, C = ends). [ ]: non-standard residue; d: D form. The star is where a group is joined. dPhe(4-NHCONH2) = NC(=O)Nc1ccc(C[C@@H](N)C(=O)O)cc1; Dihydroorotyl(S) = O=C1C[C@@H](C(=O)*)NC(=O)N1; Phe(4-Cl) = N[C@@H](Cc1ccc(Cl)cc1)C(=O)O; Phe(4-NH2) = Nc1ccc(C[C@H](N)C(=O)O)cc1; HYNIC = NNc1ccc(C(=O)*)cn1; Ahx = NCCCCCC(=O)O

A word on the logD: it is lipophilicity at a set pH, counting ionised and neutral species. Low readings indicate a more hydrophilic compound, high ones a more lipophilic compound.

For the compound `C[C@@H](O)[C@@H]1NC(=O)[C@H](CCCCN)NC(=O)[C@@H](Cc2ccc(NC(N)=O)cc2)NC(=O)[C@H](Cc2ccc(NC(=O)[C@@H]3CC(=O)NC(=O)N3)cc2)NC(=O)[C@H](NC(=O)[C@H](Cc2ccc(Cl)cc2)NC(=O)CCCCCNC(=O)c2ccc(NN)nc2)CSSC[C@@H](C(=O)N[C@H](Cc2ccc(O)cc2)C(N)=O)NC1=O` [[^99mTc]Tc-HYNIC-Ahx-JR11, metal not drawn] ({HYNIC-Ahx}-[Phe(4-Cl)][dC][Phe(4-NH2)](Dihydroorotyl(S))[dPhe(4-NHCONH2)]KTC[dY]-NH2; disulfide 2-7), in data set [1], the “Log D (pH = 7.4)” value is on record as −3.15 ± 0.06.

For `C[C@@H](O)[C@@H]1NC(=O)[C@H](CCCCN)NC(=O)[C@@H](Cc2c[nH]c3ccccc23)NC(=O)[C@H](Cc2ccc(O)cc2)NC(=O)[C@H](NC(=O)[C@H](Cc2ccc(Cl)cc2)NC(=O)CCCCCNC(=O)c2ccc(NN)nc2)CSSC[C@@H](C(=O)N[C@H](Cc2ccc(O)cc2)C(N)=O)NC1=O` [[^99mTc]Tc-HYNIC-Ahx-SS01, metal not drawn], in data set [1], the “Log D (pH = 7.4)” value was −1.96 ± 0.06.

With `C[C@@H](O)[C@@H]1NC(=O)[C@H](CCCCN)NC(=O)[C@@H](Cc2ccc(NC(N)=O)cc2)NC(=O)[C@H](Cc2ccc(NC(=O)[C@@H]3CC(=O)NC(=O)N3)cc2)NC(=O)[C@H](NC(=O)[C@H](Cc2ccc(Cl)cc2)NC(=O)c2ccc(NN)nc2)CSSC[C@@H](C(=O)N[C@H](Cc2ccc(O)cc2)C(N)=O)NC1=O` [[^99mTc]Tc-HYNIC-JR11, metal not drawn] ({HYNIC}-[Phe(4-Cl)][dC][Phe(4-NH2)](Dihydroorotyl(S))[dPhe(4-NHCONH2)]KTC[dY]-NH2; disulfide 2-7), in data set [1], the “Log D (pH = 7.4)” value is recorded as −2.88 ± 0.11.

Take `C[C@@H](O)[C@@H]1NC(=O)[C@H](CCCCN)NC(=O)[C@@H](Cc2c[nH]c3ccccc23)NC(=O)[C@H](Cc2ccc(O)cc2)NC(=O)[C@H](NC(=O)[C@H](Cc2ccc(Cl)cc2)NC(=O)CCOCCOCCOCCOCCNC(=O)c2ccc(NN)nc2)CSSC[C@@H](C(=O)N[C@H](Cc2ccc(O)cc2)C(N)=O)NC1=O` [[^99mTc]Tc-HYNIC-PEG4-SS01, metal not drawn]: in data set [1], the “Log D (pH = 7.4)” value is −2.03 ± 0.13.

On to `C[C@@H](O)[C@@H]1NC(=O)[C@H](CCCCN)NC(=O)[C@@H](Cc2c[nH]c3ccccc23)NC(=O)[C@H](Cc2ccc(O)cc2)NC(=O)[C@H](NC(=O)[C@H](Cc2ccc(Cl)cc2)NC(=O)c2ccc(NN)nc2)CSSC[C@@H](C(=O)N[C@H](Cc2ccc(O)cc2)C(N)=O)NC1=O` [[^99mTc]Tc-HYNIC-SS01, metal not drawn], for which the “Log D (pH = 7.4)” value in data set [1] was −2.21 ± 0.07.

Turning to `C[C@@H](O)[C@@H]1NC(=O)[C@H](CCCCN)NC(=O)[C@@H](Cc2c[nH]c3ccccc23)NC(=O)[C@H](Cc2ccc(O)cc2)NC(=O)[C@@H](NC(=O)[C@@H](Cc2ccccc2)NC(=O)c2ccc(NN)nc2)CSSC[C@@H](C(=O)N[C@H](CO)[C@@H](C)O)NC1=O` [[^99mTc]Tc-HYNIC-TOC, metal not drawn, reference compound], the pH-dependent lipophilicity (logD) in data set [1] (pH 7.4) is -2.77 ± 0.07.

`C[C@@H](O)[C@@H]1NC(=O)[C@H](CCCCN)NC(=O)[C@@H](Cc2c[nH]c3ccccc23)NC(=O)[C@H](Cc2ccc(O)cc2)NC(=O)[C@H](NC(=O)[C@H](Cc2ccc(Cl)cc2)NC(=O)CCNC(=O)c2ccc(NN)nc2)CSSC[C@@H](C(=O)N[C@H](Cc2ccc(O)cc2)C(N)=O)NC1=O` [[^99mTc]Tc-HYNIC-β-Ala-SS01, metal not drawn]: the “Log D (pH = 7.4)” value in data set [1] is listed as −1.91 ± 0.19. Also, in the data set on HEK-SST2 tumors, the “washout from the tumor on SPECT/CT images (in words)” value was “very fast washout from the tumor”.

On to “Cpa-c(DCys-Aph(Hor)-DAph(Cbm)-Lys-Thr-Cys)-DTyr-NH2 [JR11]”, for which the “affinity for SST2 (in words)” value with SST2 is “high affinity”.
